According to paper PMC12366639:

Substrate: CC=O
Experiment: purified protein
Format: biochemical, Homo sapiens
Conditions: NAD+

B1: aldehyde dehydrogenase 2 (ALDH2) (Homo sapiens) (protein)
chain: SAAATQAVPAPNQQPEVFCNQIFINNEWHDAVSRKTFPTVNPSTGEVICQVAEGDKEDVDKAVKAARAAFQLGSPWRRMDASHRGRLLNRLADLIERDRTYLAALETLDNGKPYVISYLVDLDMVLKCLRYYAGWADKYHGKTIPIDGDFFSYTRHEPVGVCGQIIPWNFPLLMQAWKLGPALATGNVVVMKVAEQTPLTALYVANLIKEAGFPPGVVNIVPGFGPTAGAAIASHEDVDKVAFTGSTEIGRVIQVAAGSSNLKRVTLELGGKSPNIIMSDADMDWAVEQAHFALFFNQGQCCCAGSRTFVQEDIYDEFVERSVARAKSRVVGNPFDSKTEQGPQVDETQFKKILGYINTGKQEGAKLLCGGGIAADRGYFIQPTVFGDVQDGMTIAKEEIFGPVMQILKFKTIEEVVGRANNSTYGLAAAVFTKDLDKANYLSQALQAGTVWVNCYDVFGAQSPFGGYKMSGSGRELGEYGLQAYTEVKTVTVKVPQKNS
With B1 the Km was 1.8 µM.
